Results reported in PMC5309844.

Biological target: full-length recombinant human NR1 protein (human) (UniProt Q05586)

Chain of recombinant human PDI (P07237 18-508): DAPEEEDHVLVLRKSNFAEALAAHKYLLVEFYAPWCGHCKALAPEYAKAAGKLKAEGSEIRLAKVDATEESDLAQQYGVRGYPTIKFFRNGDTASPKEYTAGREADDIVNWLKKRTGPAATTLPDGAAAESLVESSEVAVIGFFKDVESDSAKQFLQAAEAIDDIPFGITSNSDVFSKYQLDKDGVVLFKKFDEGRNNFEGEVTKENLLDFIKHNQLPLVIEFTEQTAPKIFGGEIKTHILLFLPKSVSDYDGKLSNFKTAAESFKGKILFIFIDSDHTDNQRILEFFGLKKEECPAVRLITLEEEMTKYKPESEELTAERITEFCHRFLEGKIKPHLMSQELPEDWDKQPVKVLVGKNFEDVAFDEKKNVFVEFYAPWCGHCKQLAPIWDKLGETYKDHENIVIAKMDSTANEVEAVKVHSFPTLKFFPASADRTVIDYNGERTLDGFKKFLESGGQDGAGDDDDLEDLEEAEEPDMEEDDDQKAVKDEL

Substance: recombinant human PDI (from UniProt P07237 18-508) (enzyme)
- amount of thiols on recombinant NR1 protein after 2 h with recombinant PDI at room temperature (in vitro thiol reductase assay, modified biotin switch and Western blot), against vehicle: 3.2 fold
